Patent US10654917B2, “Antibody molecules and peptide delivery systems for use in alzheimer's disease and related disorders” (TECHNOPHAGE, INVESTIGAÇĀO E DESENVOLVIMENTO EM …, priority 2015, dated 2020)

Tests used:
[1] = Biodistribution of technetium-labelled peptides; assay type: in vivo, CD1 mice
Description: To evaluate the capacity to cross the BBB in vivo, the selected peptides, pepH1 and pepH3, were analyzed for biodistribution in CD1 mice. The peptides were labelled with technetium at a final concentration of 8.5×10^−5 M and diluted in PBS. CD1 mice were injected (iv injection, tail vein). The mice were sacrificed by cervical dislocation after 5 and 60 minutes of incubation. The tissues of interest were dissected and washed to remove excess blood, weighed, and measured for radioactivity. Technetium radioactivity of the different peptides was measured for different organs.
Initial results are presented in Table 11, where “% I.A. refers to the “% injected activity”, that is, the amount of radioactivity measured in a given organ compared to the total originally injected.
The biodistribution studies were repeated, using higher doses of each peptide, specifically, a one hundred fold increase, as well as using PepH2 as a negative control, and allowing incubation for 2 minutes and 60 minutes. Tissue biodistribution profile in percentage of injected radiopeptide activity per gram of tissue/organ was measured and results are presented in Table 12.

[2] = tested on: in vitro model of the BBB (bEnd3 cells); assay: Transmigration of radiolabelled peptides across in vitro BBB model; assay type: in vitro ADME
Description: Using the same in vitro model of the BBB described above, peptides labelled with technetium and gallium were tested for the ability to cross endothelial barrier. For each peptide, bEnd3 cells cultured on “tissue culture inserts” were incubated with 5 ρCimL^−1-labelled peptide for different incubation times: 15 min, 5 h and 24 h. As a control, the model without cells was used (Control no cells) or (Filters) and compared to models with cells (BBB) or (Cells).
FIGS. 21A-21F show the percent activity of the radioisotope technetium-labelled peptides at the apex and base after 5 hours of incubation with the in vitro model described above, using the BBB-model or no cells (as a control); and values were obtained from two independent assays. […] Moreover, the results indicated promising candidates. Specifically, for each of pepH1 and pepH3, there was an overpass of 50% in the control, compared with only 20% in the presence of a cell barrier. The translocation of pepH2 was not observed in either the control nor in the BBB model.
Results for the incubations of 15 minutes, 5 hours, and 24 hours are shown together in FIGS. 22A-22F. That is, FIGS. 22A-22F show the percent activity of the radioisotope technetium-labelled peptides at the apex and base after 15 minutes, 5 hours, and 24 hours of incubation with the in vitro model described above, using the BBB-model or no cells (as a control); and values were obtained from two independent assays. Differences again were observed, confirming the integrity of the barrier, as well as identifying peptides that crossed the barrier. […] PepR′ thus was excluded from further tests.
(§1) Table 9 summarizes results regarding uptake (internalization) and cellular interaction, as well as transmigration across an in vitro model for BBB, for peptides labelled with technetium and gallium, after 15 minutes, 5 hours, and 24-hours of incubation, based on percent recovery of radiopeptide. The Table lists the peptides, providing each peptide's name, % BBB transmigration, % cellular interaction, and % internalized, each after […], 5 hours, and 24 hours of incubation.

[3] = Features of peptides: isoelectric point, charge; assay type: physicochemical; settings: original peptide
Excerpt: Table 7 lists each peptide's name, isoelectric point (PI), charge (number of positive residues), calculated mass (in Da), and ion found; as well as the name, calculated mass, and found ion for the corresponding conjugate; and also retention times in HPLC and the partition coefficient (log Po/w). These values allowed the determination of the hydrophilic nature of peptides, where pepH1 and pepH4 were identified as the most hydrophilic peptides.

[4] = tested on: bEnd3 cells; assay: MTT cell viability assay; assay type: cell-based; settings: for effect on cell viability: 0.1-100 μM (pepM′ 0.1-50 μM), 24 hours; for cell death: concentration below 40 μM, peptide in DMSO
Description: To test possible toxicity of selected peptides to BBB cells, 5×10^4 bEnd3 cells were cultured in 96-well plates, at 100 μL/well, and incubated for 24 hours. The peptides then were added at concentrations of 0.1-100 μM, with the exception of pepM′ (which was added at concentrations of 0.1-50 μM). As a control providing 100% of viability, a well with serum-free media was included.
After 24 hours of incubation, a MTT assay was performed, which is a colorimetric assay for assessing cell metabolic activity. A MTT solution at 5 mg/mL in PBS was added to each well and incubated for 2 hours. After this period, the solution was removed and DMSO added to solubilize violet crystals formed. Absorbance was measured at 540 nm. The viability percentage [Absorbancepeptide-treated cells/Absorbanceuntreated-cells)*100] was calculated and IC50 values were calculated from three independent assays.
As FIGS. 24A-24E show, the selected peptides have no effect on cell viability, specifically, there was no observable nor measurable effect using the assay described.

[5] = tested on: bEnd3 cells; assay: Uptake test: cellular interaction (acid wash) and internalization (lysate); assay type: cell-based
Description: In addition to testing models of BBB, an uptake test was performed to determine the internalizing ability of the candidate peptides. BEnd3 cells were cultured in 24 well plates. At each time point, the medium containing the peptide, which had not interacted with the cells, was collected. In the next step, the cells were washed with an acidic buffer that releases peptides more strongly bound to the cell membrane (sample acid wash). Finally, the cells were lysed to release internalized peptides and to quantify the activity inside the cells. Results are showing in FIGS. 23A-23E.
FIGS. 23A-23E show percent activity of the radioisotope technetium-labelled peptides in the media, wash buffer (acid wash) and lysate, after 15 minutes, 5 hours, and 24 hours of incubation with bEnd3 cells; and values were obtained from two independent assays. […] PepM′, as well as showing high transmigration (about 50%), also appeared to become internalized and accumulated within the cells (about 13% of radioactivity in the lysate).
as §1

[6] = design: species or system CD1 mice; settings: mouse, in vivo
Description: The different antibody-peptide constructs were used in biodistribution assays, and results compared with the biodistribution of the respective DEN2C peptides (pepH1, pepH2, pepH3, and pepM′, chemically synthesized). […] After expression and purification, the sdAbs and sdAb-peptide constructs were conjugated to technetium (^99Tc) and a biodistribution assay was performed, as previously described.
Tables 14-16 show the biodistribution of different anti-BAP42 sdAbs and constructs thereof with different peptides (“pepH3”).

[7] = 99mTc, 24 hours, listed as PepHM′

For KLFMALVAFLRFLT [PepH2], the “radioactivity levels in the brain” value ([1]; 80 μg, after 60 minutes) was 0.2%, the “radioactivity in the brain” value ([1]; 140 μg (pepH1, pepH3) or 80 μg (pepH2), 2 min) was 0.37% and the excreted ([1]; 140 μg (pepH1, pepH3) or 80 μg (pepH2), after 60 min) was 12.7%. The brain uptake ([1]; after 2 min) was “rapid brain uptake”, the brain washout ([1]; mouse, in vivo) was “brain washout was slower” and the BBB transmigration ([2]; 99mTc, 0.25 hours) was 0.79 ± 0.7%. For the same molecule, the BBB transmigration ([2]; 99mTc, 5 hours) was 5.21 ± 3.3%, the BBB transmigration ([2]; 99mTc, 5 hours, listed as pepH2) was “not observed” and the BBB transmigration ([2]; 99mTc, 24 hours) was 9.32 ± 2.5%. It also gave a BBB transmigration ([2]; 99mTc, 24 hours, listed as pepH2) of 9%, a BBB transmigration ([2]; GaCl3, 0.25 hours) of 0.33 ± 0.1% and a BBB transmigration ([2]; GaCl3, 5 hours) of 4.06 ± 0.3%. For the same molecule, the BBB transmigration ([2]; GaCl3, 24 hours) was 13.51 ± 0.7%, the “Charge (number of positive residues)” value [3] was 2 and the “PI (isoelectric point)” value [3] was 11. The “effect on cell viability” value [4] was “small decrease in viability”, the cell death [4] was “no cell death” and the Cellular interaction ([5]; 99mTc, 0.25 hours) was 1.60 ± 0.3%. For the same molecule, the Internalization ([5]; 99mTc, 0.25 hours) was 2.15 ± 1.2%, the Cellular interaction ([5]; 99mTc, 5 hours) was 5.95 ± 3.0% and the Internalization ([5]; 99mTc, 5 hours) was 24.8 ± 2.0%. The Cellular interaction ([5]; 99mTc, 24 hours) was 2.20 ± 0.4%, the Cellular interaction ([5]; GaCl3, 0.25 hours) was 0.77 ± 0.1% and the Internalization ([5]; GaCl3, 0.25 hours) was 0.84 ± 0.1%. It also gave a Cellular interaction ([5]; GaCl3, 5 hours) of 1.48 ± 0.1%, an Internalization ([5]; GaCl3, 5 hours) of 6.97 ± 0.3% and a Cellular interaction ([5]; GaCl3, 24 hours) of 1.16 ± 0.1%. It also gave an Internalization ([5]; GaCl3, 24 hours) of 9.24 ± 1.2%.

In the case of LVAFLRFLTIPPTAGILKRW [PepM′], the BBB transmigration ([2]; 99mTc, 24 hours) is reported as “about 50%”, the BBB transmigration [2, 7] is reported as 53.47 ± 3.1% and the BBB transmigration ([2]; 99mTc, 24 hours, listed as pepM) is reported as roughly 50%. The BBB transmigration ([2]; GaCl3, 24 hours) was 47.31 ± 1.2%, the “Charge (number of positive residues)” value [3] was 3 and the “PI (isoelectric point)” value [3] was 12.0. The “effect on cell viability” value [4] was “small decrease in viability”, the cell death [4] was “no cell death” and the Cellular interaction ([5]; 99mTc, 24 hours) was 8.32 ± 1.9%. The Internalization ([5]; 99mTc, 24 hours) was “about 13%”, the Internalization [5, 7] was 12.81 ± 2.0% and the Cellular interaction ([5]; GaCl3, 24 hours) was 2.23 ± 0.1%. For the same molecule, the Internalization ([5]; GaCl3, 24 hours) was 3.68 ± 0.0%.

Work on KSKAINVLRGFRKEIGRMLNILN [PepH4] yielded a BBB transmigration ([2]; 99mTc, 0.25 hours) of 3.30 ± 0.5%, a BBB transmigration ([2]; 99mTc, 5 hours) of 30.08 ± 1.6% and a BBB transmigration ([2]; GaCl3, 0.25 hours) of 0.93 ± 0.1%. For the same molecule, the BBB transmigration ([2]; GaCl3, 5 hours) was 16.60 ± 1.1%, the BBB transmigration ([2]; GaCl3, 24 hours) was 60.79 ± 2.6% and the “Charge (number of positive residues)” value [3] was 6. For the same molecule, the “PI (isoelectric point)” value [3] was 11.7, the “where the radiopeptide is found in the uptake test (media, acid wash, lysate)” value ([5]; 99mTc) was “mainly remained in the incubation medium” and the Cellular interaction ([5]; 99mTc, 0.25 hours) was 2.06 ± 0.3%. It also gave an Internalization ([5]; 99mTc, 0.25 hours) of 0.17 ± 0.0%, a Cellular interaction ([5]; 99mTc, 5 hours) of 10.10 ± 0.1% and an Internalization ([5]; 99mTc, 5 hours) of 1.53 ± 0.0%. For the same molecule, the Cellular interaction ([5]; 99mTc, 24 hours) was 10.23 ± 0.8%, the Internalization ([5]; 99mTc, 24 hours) was 2.83 ± 0.2% and the Cellular interaction ([5]; GaCl3, 0.25 hours) was 4.06 ± 0.2%. It also gave an Internalization ([5]; GaCl3, 0.25 hours) of 0.26 ± 0.0%, a Cellular interaction ([5]; GaCl3, 5 hours) of 3.00 ± 0.1% and an Internalization ([5]; GaCl3, 5 hours) of 0.78 ± 0.0%. It also gave a Cellular interaction ([5]; GaCl3, 24 hours) of 3.82 ± 0.1% and an Internalization ([5]; GaCl3, 24 hours) of 1.55 ± 0.1%.

With KEIGRMLNILNRRRR [PepR′] the BBB transmigration ([2]; 99mTc, 24 hours) was “more limited in crossing the barrier”.

B1: #27in: anti-BAP42 sdAb, SEQ ID NO: 4 (antibody, V domains shown)
VL: ELVLTQTPSSVSAAVGGTVTINCQASQSVSNRLAWYQQKPGQPPKLLIYGASRLESGVPSRFRGSGSGTEFTLTISGMKAEDAATYYCQSCYYSVGVTFGAGTNVEIK
In the case of B1, the “factor by which washout from the brain is slowed on linking to delivery peptide pepH3” value [6] is reported as “about 2” and the “factor of increase of presence in the brain on linking to delivery peptide pepH3” value [6] is reported as “about 6”.
